Measurements from patent US20240002531A1 (ONO PHARMACEUTICAL, published 2024).
Where two headings read alike, the source gives them in different places. Blank lines part the entries; values can stand above or below the binder they belong to.

Columns and labels:
Assay in all cases: peptide ELISA, OD 655 nm
[1] = target: T1, I613A peptide (HER2 603-622 with I613A) (human)
T1 construct: also called 1613A
T1 peptide: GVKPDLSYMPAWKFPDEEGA

[2] = target: T2, G621A peptide (HER2 603-622 with G621A) (human)
T2 peptide: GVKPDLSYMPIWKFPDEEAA

[3] = target: T3, G603A peptide (HER2 603-622 with G603A) (human)
T3 peptide: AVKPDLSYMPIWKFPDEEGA

[4] = target: T4, W614A peptide (HER2 603-622 with W614A) (human)
T4 peptide: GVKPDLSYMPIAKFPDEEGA

[5] = target: T5, D607A peptide (HER2 603-622 with D607A) (human)
T5 peptide: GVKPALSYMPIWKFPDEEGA

[6] = target: T6, K605A peptide (HER2 603-622 with K605A) (human)
T6 peptide: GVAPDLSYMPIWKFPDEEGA

[7] = target: T7, P606A peptide (HER2 603-622 with P606A) (human)
T7 peptide: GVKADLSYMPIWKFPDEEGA

[8] = target: T8, P612A peptide (HER2 603-622 with P612A) (human)
T8 peptide: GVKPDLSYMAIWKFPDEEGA

[9] = target: T9, Y610A peptide (HER2 603-622 with Y610A) (human)
T9 peptide: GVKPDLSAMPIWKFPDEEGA

[10] = target: T10, F616A peptide (HER2 603-622 with F616A) (human)
T10 peptide: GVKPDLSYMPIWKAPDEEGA

[11] = target: T11, K615A peptide (HER2 603-622 with K615A) (human)
T11 peptide: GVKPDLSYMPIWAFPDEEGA

[12] = target: T12, S609A peptide (HER2 603-622 with S609A) (human)
T12 peptide: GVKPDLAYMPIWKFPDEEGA

[13] = target: T13, M611A peptide (HER2 603-622 with M611A) (human)
T13 peptide: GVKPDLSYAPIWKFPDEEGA

[14] = target: T14, E620A peptide (HER2 603-622 with E620A) (human)
T14 peptide: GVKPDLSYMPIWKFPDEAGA

[15] = target: T15, L608A peptide (HER2 603-622 with L608A) (human)
T15 peptide: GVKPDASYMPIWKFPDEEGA

[16] = target: T16, D618A peptide (HER2 603-622 with D618A) (human)
T16 peptide: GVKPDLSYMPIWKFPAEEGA

[17] = target: T17, HER2_604-622C peptide (NH2-VKPDLSYMPIWKFPDEEGAC-COOH) (human)
T17 construct: KLH was added for immunisation, the peptide itself was coated in the screening ELISA
T17 peptide: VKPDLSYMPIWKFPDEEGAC

[18] = target: T18, E619A peptide (HER2 603-622 with E619A) (human)
T18 peptide: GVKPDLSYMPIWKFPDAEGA

[19] = target: T19, P617A peptide (HER2 603-622 with P617A) (human)
T19 peptide: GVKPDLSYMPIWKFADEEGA

[20] = target: T20, HER2 peptide p603-622 (amino acids 603 to 622 of human HER2) (human)
T20 construct: Synthetic peptide; also called wild-type HER2 peptide
T20 peptide: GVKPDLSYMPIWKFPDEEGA

[21] = target: T21, V604A peptide (HER2 603-622 with V604A) (human)
T21 peptide: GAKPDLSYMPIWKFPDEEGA

[22] = target: T1, I613A peptide (HER2 603-622 with I613A)
[23] = target: T2, G621A peptide (HER2 603-622 with G621A)
[24] = target: T3, G603A peptide (HER2 603-622 with G603A)
[25] = target: T4, W614A peptide (HER2 603-622 with W614A)
[26] = target: T5, D607A peptide (HER2 603-622 with D607A)
[27] = target: T6, K605A peptide (HER2 603-622 with K605A)
[28] = target: T7, P606A peptide (HER2 603-622 with P606A)
[29] = target: T8, P612A peptide (HER2 603-622 with P612A)
[30] = target: T9, Y610A peptide (HER2 603-622 with Y610A)
[31] = target: T10, F616A peptide (HER2 603-622 with F616A)
[32] = target: T11, K615A peptide (HER2 603-622 with K615A)
[33] = target: T12, S609A peptide (HER2 603-622 with S609A)
[34] = target: T13, M611A peptide (HER2 603-622 with M611A)
[35] = target: T14, E620A peptide (HER2 603-622 with E620A)
[36] = target: T15, L608A peptide (HER2 603-622 with L608A)
[37] = target: T16, D618A peptide (HER2 603-622 with D618A)
[38] = target: T17, HER2_604-622C peptide …
[39] = target: T18, E619A peptide (HER2 603-622 with E619A)
[40] = target: T19, P617A peptide (HER2 603-622 with P617A)
[41] = target: T20, HER2 peptide p603-622 (amino acids 603 …)
[42] = target: T21, V604A peptide (HER2 603-622 with V604A)

binding result [1]: binds
binding result [2]: binds
binding result [3]: binds
binding result [4]: binds
binding result [5]: binds
binding result [6]: binds
binding result [7]: binds
binding result [8]: binds
binding result [9]: binds
binding result [10]: binds
binding result [11]: binds
binding result [12]: binds
binding result [13]: binds
binding result [14]: binds
binding result [15]: binds
binding result [16]: binds
binding result [17]: binds
binding result [18]: binds
binding result [19]: binds
binding result [20]: binds
binding result [21]: binds
B1: H2Mab-289 antibody (antibody, mouse IgG1, kappa, V domains shown)
VH: EVQLQQSGPELVKPGASVKISCKASGYSFTGFFMNWVMQSHGKSLEWIGRINPYNGDTFYNQKFNDKATLTVDKSSRTAHMDLRNLASEDSAVYYCATISGNYRGYAMDNWGQGTSVTVSS
VL: DVLMTQTPLSLPVSLGDQASISCRSSQTILHTNGNTYLEWYLQKPGQSPKLLIYKVSNRFSGVPDRFSGSGSGTDFTLKISRVEAEDLGVYYCFQGSRVPPTFGGGTKLEIKR

binding result [22]: binds
binding result [23]: binds
binding result [24]: binds
binding result [25]: binds
binding result [26]: binds
binding result [27]: binds
binding result [28]: binds
binding result [29]: binds
binding result [30]: binds
binding result [31]: no binding (tested: 10 ug/ml)
binding result [32]: no binding (tested: 10 ug/ml)
binding result [33]: binds
binding result [34]: binds
binding result [35]: binds
binding result [36]: binds
binding result [37]: binds
binding result [38]: binds
binding result [39]: binds
binding result [40]: binds
binding result [41]: binds
binding result [42]: binds
B2: H2Mab-284 antibody (antibody, mouse IgG1, kappa, V domains shown)
VH: QVTLKESGPGILQPSQTLSLTCSFSGFSLSTSGVGVGWIRQPSGKGLEWLAHIWWDDDKNYNPALKSRLTISKDTSTNQGFLKIASVDTADTATYFCARIEGQKGFAYWGQGTLVTVSA
VL: DIVMSQSPSSLAVSVGEKVTMSCKSSQSLLYSRNQKNYLAWYQQKPGQSPKLLIYWASTRESGVPDRFTGSGSGTDFTLTISSVKAEDLAVYYCQQYYSSPYTFGGGTKLEIKR

binding result [22]: binds
binding result [23]: binds
binding result [24]: binds
binding result [25]: binds
binding result [26]: binds
binding result [27]: binds
binding result [28]: binds
binding result [29]: binds
binding result [30]: binds
binding result [31]: binds
binding result [32]: binds
binding result [33]: binds
binding result [34]: binds
binding result [35]: binds
binding result [36]: binds
binding result [37]: binds
binding result [38]: binds
binding result [39]: binds
binding result [40]: binds
binding result [41]: binds
binding result [42]: binds
B3: H2Mab-285 antibody (antibody, mouse IgG3, V domains shown)
VH: EVQLVESGGGLVQPGGSLKLSCAASGFTFSNYGIFWVRQTPDKRLELVATVKSNGGSTYYPDSVKGRFTISRDNAKKTLYLQMSSLKSEDTAMYYCAREGGDYWGQGTSVTVSS
VL: DIVMTQSHKFMSTSVGDRVSITCKASQDVGTAVAWYQQKPGQSPKLLIYWTSTRHTGVPDRFTGSGSGTDFTLTIRNVQSEDLADYFCQQYNRNPLTFGAGTRLELKR
